T1: Abp1 SH3 (ABP1_YEAST), P15891
T1 chain: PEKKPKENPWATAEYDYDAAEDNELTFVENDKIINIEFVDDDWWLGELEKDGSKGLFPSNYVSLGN

B1: YDR096W 741-753 (peptide)
chain: DAGPSFSPLHKKP
B2: YER047C 185-198 (peptide)
chain: DAENIRVNFVPSKP
B3: YPL150W 616-628 (peptide)
chain: DGKVSPPPIRNRP
B4: YDR407C 928-940 (peptide)
chain: SVRIIKLPTVIKP
B5: YJR033C 1330-1343 (peptide)
chain: DILDDLSSQKPQKP
B6: YLR410W 340-352 (peptide)
chain: DGKTMTKPFVEKP
B7: YKL020C 937-950 (peptide)
chain: DELPKYEDLFPKKP
B8: YIL109C 377-389 (peptide)
chain: DIADLEEPFLPRP
B9: YLR299W 80-93 (peptide)
chain: DHHNIDIDPLPRRP
B10: YBR257W 10-23 (peptide)
chain: DSLFTKSLEDPEKP
B11: YDL156W 333-346 (peptide)
chain: DKKIGSMAINPMRP
B12: YLR450W 583-596 (peptide)
chain: SVYALSSQDEPIRP
B13: YMR003W 182-194 (peptide)
chain: SLWWNLEPQESKP
B14: YPR070W 510-523 (peptide)
chain: DIEMKDVSSKPSKP
B15: YER027C 294-307 (peptide)
chain: DGYTRFHDETPAKP
B16: YLR106C 2240-2252 (peptide)
chain: SSQEDGQPRVLKP
B17: YMR244W 79-91 (peptide)
chain: SSYGSWSPYASKP
B18: YLR417W 380-392 (peptide)
chain: DESTVNEPKTRRP
B19: YOL084W 269-281 (peptide)
chain: DDLETYVPHKKRP
B20: YGL170C 266-278 (peptide)
chain: DFRNPLLPIDNRP
B21: YCR077C 93-105 (peptide)
chain: DGTAAAGPLDLKP
B22: YOR068C 68-80 (peptide)
chain: SSSSSGLPATDKP
B23: YIL029C 115-127 (peptide)
chain: SSQGINVPGTKKP
B24: YGR134W 1092-1104 (peptide)
chain: DGKILPLPKADKP
B25: YDL215C 852-864 (peptide)
chain: DHVDIFVPSGGRP
B26: YPL100W 471-484 (peptide)
chain: DDGTFSIYSIPSKP
B27: YPR121W 328-341 (peptide)
chain: DESFTASDAVPKKP
B28: YBL015W 191-203 (peptide)
chain: DIDMPVNPPFRKP
B29: YOL125W 257-270 (peptide)
chain: DDFSEIKSNSPSKP
B30: YMR147W 118-131 (peptide)
chain: DENEKESRHYPIKP
B31: YKL092C 848-860 (peptide)
chain: DKKDLDSPIEVKP
B32: YOL055C 307-320 (peptide)
chain: DESFTASDVIPKKP
B33: YKL220C 443-456 (peptide)
chain: DDLIRLTVKKPARP
B34: YDR464W 561-574 (peptide)
chain: DASSVELTEVPSKP
B35: YMR153W 198-210 (peptide)
chain: DGKPTATPSPFRP
B36: YGR013W 516-529 (peptide)
chain: DEGYRESELPPTKP
B37: YGR271W 1320-1332 (peptide)
chain: DHGLYNFPSSVRP
B38: YER090W 132-144 (peptide)
chain: DSVRYFEPKTRRP
B39: YER095W 332-344 (peptide)
chain: DGGMAFNPDPKKP
B40: YKL103C 202-214 (peptide)
chain: SRIPSLAPHFGKP
B41: YPR186C 218-230 (peptide)
chain: DHPKLKSPISSKP
B42: YGL197W 684-696 (peptide)
chain: DEEDDEDPVSPKP

Target: T1, Abp1 SH3 (ABP1_YEAST), P15891
Assay: SPOT array
Binder B1 has a normalised SPOT signal, Boehringer light units (BLU); mean over the file's lines of this peptide of 231. Binder B2 has a normalised SPOT signal, Boehringer light units (BLU); mean over the file's lines of this peptide of 133. B3 showed a normalised SPOT signal, Boehringer light units (BLU); mean over the file's lines of this peptide of 6430. B4 showed a normalised SPOT signal, Boehringer light units (BLU); mean over the file's lines of this peptide of 175. B5 gave a normalised SPOT signal, Boehringer light units (BLU); mean over the file's lines of this peptide of 131. Work on B6 yielded a normalised SPOT signal, Boehringer light units (BLU); mean over the file's lines of this peptide of 171. With B7 the normalised SPOT signal, Boehringer light units (BLU); mean over the file's lines of this peptide was 132. B8 showed a normalised SPOT signal, Boehringer light units (BLU); mean over the file's lines of this peptide of 65.6. B9 gave a normalised SPOT signal, Boehringer light units (BLU); mean over the file's lines of this peptide of 122. In the case of B10, the normalised SPOT signal, Boehringer light units (BLU); mean over the file's lines of this peptide is reported as 113. B11 was tested, and the normalised SPOT signal, Boehringer light units (BLU); mean over the file's lines of this peptide was 183. B12 was tested, and the normalised SPOT signal, Boehringer light units (BLU); mean over the file's lines of this peptide was 37.7. Binder B13 has a normalised SPOT signal, Boehringer light units (BLU); mean over the file's lines of this peptide of 68. In the case of B14, the normalised SPOT signal, Boehringer light units (BLU); mean over the file's lines of this peptide is reported as 85.7. Binder B15 has a normalised SPOT signal, Boehringer light units (BLU); mean over the file's lines of this peptide of 101. Work on B16 yielded a normalised SPOT signal, Boehringer light units (BLU); mean over the file's lines of this peptide of 118. In the case of B17, the normalised SPOT signal, Boehringer light units (BLU); mean over the file's lines of this peptide is reported as 46.2. Work on B18 yielded a normalised SPOT signal, Boehringer light units (BLU); mean over the file's lines of this peptide of 95.6. B19 was tested, and the normalised SPOT signal, Boehringer light units (BLU); mean over the file's lines of this peptide was 120. B20 gave a normalised SPOT signal, Boehringer light units (BLU); mean over the file's lines of this peptide of 138. B21 showed a normalised SPOT signal, Boehringer light units (BLU); mean over the file's lines of this peptide of 47.1. With B22 the normalised SPOT signal, Boehringer light units (BLU); mean over the file's lines of this peptide was 59.6. Binder B23 has a normalised SPOT signal, Boehringer light units (BLU); mean over the file's lines of this peptide of 178. Work on B24 yielded a normalised SPOT signal, Boehringer light units (BLU); mean over the file's lines of this peptide of 18.9. In the case of B25, the normalised SPOT signal, Boehringer light units (BLU); mean over the file's lines of this peptide is reported as 33.3. B26 was tested, and the normalised SPOT signal, Boehringer light units (BLU); mean over the file's lines of this peptide was 169. B27 was tested, and the normalised SPOT signal, Boehringer light units (BLU); mean over the file's lines of this peptide was 112. Work on B28 yielded a normalised SPOT signal, Boehringer light units (BLU); mean over the file's lines of this peptide of 257. B29 gave a normalised SPOT signal, Boehringer light units (BLU); mean over the file's lines of this peptide of 58.4. B30 showed a normalised SPOT signal, Boehringer light units (BLU); mean over the file's lines of this peptide of 104. B31 was tested, and the normalised SPOT signal, Boehringer light units (BLU); mean over the file's lines of this peptide was 36.5. Binder B32 has a normalised SPOT signal, Boehringer light units (BLU); mean over the file's lines of this peptide of 142. Work on B33 yielded a normalised SPOT signal, Boehringer light units (BLU); mean over the file's lines of this peptide of 446. B34 showed a normalised SPOT signal, Boehringer light units (BLU); mean over the file's lines of this peptide of 25.2. With B35 the normalised SPOT signal, Boehringer light units (BLU); mean over the file's lines of this peptide was 158. In the case of B36, the normalised SPOT signal, Boehringer light units (BLU); mean over the file's lines of this peptide is reported as 62.8. B37 showed a normalised SPOT signal, Boehringer light units (BLU); mean over the file's lines of this peptide of 77.3. Work on B38 yielded a normalised SPOT signal, Boehringer light units (BLU); mean over the file's lines of this peptide of 659. Work on B39 yielded a normalised SPOT signal, Boehringer light units (BLU); mean over the file's lines of this peptide of 105. With B40 the normalised SPOT signal, Boehringer light units (BLU); mean over the file's lines of this peptide was 99.3. B41 gave a normalised SPOT signal, Boehringer light units (BLU); mean over the file's lines of this peptide of 98. B42 gave a normalised SPOT signal, Boehringer light units (BLU); mean over the file's lines of this peptide of 90.3.

Source: paper PMC314469, “Protein Interaction Networks by Proteome Peptide Scanning” (PLoS Biology, 2004)
